Consider 1 substance from article PMC9637144.

This experiment concerns the target human IGF1R ectodomain (Δβ mutant) (human) (UniProt P08069). Description: radioligand binding.

One may read the IC50 as the concentration that gives 50% inhibition. A higher IC50 goes with weaker potency. In turn, “human IGF-1 (unlabeled) (from UniProt P05019 49-118) (ligand)” returned an IC50 of 0.4 nM. This lies in the sub-nanomolar range.
